Values quoted from earlier work in PMC12135873.

Target: Cys106 (UniProt position 106, LIAAICAGPTA)

For “DJ-1 (PARK7, Parkinson disease protein 7) (Homo sapiens)”, the pKa is listed as 5.4.
